What all share (conditions): both partners purified
In experiment [1] the target is T1, GST-IlsA fusion protein (IlsA, iron-regulated leucine-rich surface protein of Bacillus cereus ATCC 14579) (Bacillus cereus ATCC 14579, UniProt Q81G77 1-760).
T1 construct: also called IlsA-GST; purified IlsA; source: E. coli BL-21, purified (pellet solubilised in 8 M urea, dialysed, glutathione Sepharose 4B)
T1 sequence: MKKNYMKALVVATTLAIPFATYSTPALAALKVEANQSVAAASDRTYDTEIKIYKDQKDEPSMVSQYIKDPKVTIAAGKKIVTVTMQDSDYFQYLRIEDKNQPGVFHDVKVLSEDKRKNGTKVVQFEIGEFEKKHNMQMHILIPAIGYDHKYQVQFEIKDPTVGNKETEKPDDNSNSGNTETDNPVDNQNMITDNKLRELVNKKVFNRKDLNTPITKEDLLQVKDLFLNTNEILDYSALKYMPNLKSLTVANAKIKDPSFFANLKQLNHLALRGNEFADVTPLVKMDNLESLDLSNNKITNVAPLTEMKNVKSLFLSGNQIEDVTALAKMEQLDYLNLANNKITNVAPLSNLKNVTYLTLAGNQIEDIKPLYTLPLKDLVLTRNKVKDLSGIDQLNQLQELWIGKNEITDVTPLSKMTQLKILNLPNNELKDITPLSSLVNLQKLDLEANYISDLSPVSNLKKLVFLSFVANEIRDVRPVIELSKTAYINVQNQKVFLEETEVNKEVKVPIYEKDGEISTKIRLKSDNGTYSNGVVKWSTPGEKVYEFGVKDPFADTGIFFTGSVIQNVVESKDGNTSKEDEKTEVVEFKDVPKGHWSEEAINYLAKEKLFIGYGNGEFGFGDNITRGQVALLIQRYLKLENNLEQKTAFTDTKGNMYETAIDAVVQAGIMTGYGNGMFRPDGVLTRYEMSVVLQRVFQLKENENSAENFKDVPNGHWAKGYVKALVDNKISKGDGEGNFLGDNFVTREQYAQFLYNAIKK
Put plainly: SPR. Background: Surface plasmon resonance follows binding to a sensor surface in real time, without labels.

In experiment [2] the target is T1, GST-IlsA fusion protein (IlsA, …). In words: ELISA. A general note: ELISA stands for enzyme-linked immunosorbent assay.
Experiment [3] shares this target. In words: ELISA; hemoglobin or ferritin coated on plates in increasing amounts (0-180 nM), 0.1 M phosphate buffer pH 7.4; IlsA added at 30 nM, 2 h at 37°C; detected with polyclonal anti-IlsA; Kd estimated with Origin.
For experiment [4] the target is unchanged. In words: SPR; BIAcore 3000; GST-IlsA captured by anti-GST antibody on a CM5 chip; ligands injected at 200 nM for 8 min, dissociation 10 min; 0.1 M phosphate buffer pH 7.4; 20°C; data did not fit a 1:1 model, indicative koff from the dissociation phase only.

We go through two molecules from paper PMC2777315 (PLoS Pathogens, 2009).

B1: ferritin (complex)
chain 1: MSSQIRQNYSTEVEAAVNRLVNLYLRASYTYLSLGFYFDRDDVALEGVCHFFRELAEEKREGAERLLKMQNQRGGRALFQDLQKPSQDEWGTTLDAMKAAIVLEKSLNQALLDLHALGSAQADPHLCDFLESHFLDEEVKLIKKMGDHLTNIQRLVGSQAGLGEYLFERLTLKHD
chain 2: MTTAFPSQVRQNYHQDSEAAINRQINLELHASYVYLSMSFYFDRDDVALKNFAKYFLHQSHEEREHAEKLMKLQNQRGGRIFLQDIKKPDQDDWENGLKAMECALHLEKNVNESLLELHKLATDKNDPHLCDFLETHYLNEQVKAIKELGDHVTNLRRMGAPESGMAEYLFDKHTLGECDES
notes: source: bought: Sigma-Aldrich
Turning to B1, the koff in experiment [1] came to 0.00171 s⁻¹. The molecule further displayed an equilibrium dissociation constant (Kd) in experiment [2] of 10 ± 3 nM.

B2: hemoglobin (complex)
chain 1: not shown
chain 2: not shown
Consider B2, for which the Kd in experiment [3] is 3 ± 1 nM. The koff in experiment [4] amounted to 0.00148 s⁻¹.

In general, koff refers to the first-order rate constant of dissociation. As usually defined, the Kd is the equilibrium constant for the complex coming apart.
